Experimental data: ChEMBL document CHEMBL2074389, “Isolation of a multispecific organic anion and cardiac glycoside transporter from rat brain” (Proc Natl Acad Sci U S A, 1997)

Experiments:
Format in all cases: functional, cell-based, Oocyte
[1] = target: T1, Solute carrier organic anion transporter family member 1A4 (SLCO1A4, OATP1A4) (Rattus norvegicus, UniProt O35913); experiment: (§1) TP_TRANSPORTER: uptake in Xenopus laevis oocytes; conditions: Xenopus laevis oocytes expressing the transporter
T1 sequence (O35913 whole entry): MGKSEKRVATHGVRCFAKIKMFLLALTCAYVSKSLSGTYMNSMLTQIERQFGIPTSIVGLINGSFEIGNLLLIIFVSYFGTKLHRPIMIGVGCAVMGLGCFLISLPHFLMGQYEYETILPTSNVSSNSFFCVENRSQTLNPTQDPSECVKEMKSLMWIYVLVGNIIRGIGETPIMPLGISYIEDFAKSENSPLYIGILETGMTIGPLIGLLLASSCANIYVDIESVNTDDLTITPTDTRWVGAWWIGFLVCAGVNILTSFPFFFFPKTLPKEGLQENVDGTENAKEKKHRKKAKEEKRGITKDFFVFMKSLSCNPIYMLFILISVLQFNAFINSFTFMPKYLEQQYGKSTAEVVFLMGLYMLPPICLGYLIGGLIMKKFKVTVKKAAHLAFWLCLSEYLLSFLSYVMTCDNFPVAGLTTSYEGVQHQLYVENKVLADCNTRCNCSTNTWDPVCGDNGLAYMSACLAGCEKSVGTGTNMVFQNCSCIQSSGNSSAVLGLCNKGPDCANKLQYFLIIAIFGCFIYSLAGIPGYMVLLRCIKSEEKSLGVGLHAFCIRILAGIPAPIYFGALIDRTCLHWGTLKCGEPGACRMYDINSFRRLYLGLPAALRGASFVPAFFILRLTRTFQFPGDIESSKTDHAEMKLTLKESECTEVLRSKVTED

[2] = target: T2, Solute carrier organic anion transporter family member 1A4 (Rattus norvegicus, UniProt O35913); experiment: as §1; conditions: oocyte
T2 sequence (O35913 whole entry): T1 sequence (O35913 whole entry)

[3] = substrate: C[C@H]1O[C@@H](O[C@H]2[C@@H](O)C[C@H](O[C@H]3[C@@H](O)C[C@H](O[C@H]4CC[C@@]5(C)[C@H](CC[C@@H]6[C@@H]5C[C@@H](O)[C@]5(C)[C@@H](C7=CC(=O)OC7)CC[C@]65O)C4)O[C@@H]3C)O[C@@H]2C)C[C@H](O)[C@@H]1O; experiment: as §1
[4] = substrate: C[C@]12CC[C@@H]3c4ccc(OS(=O)(=O)O)cc4CC[C@H]3[C@@H]1CCC2=O; experiment: as §1
[5] = substrate: C[C@]12CC[C@@H]3c4ccc(O)cc4CC[C@H]3[C@@H]1CC[C@@H]2O[C@@H]1O[C@H](C(=O)O)[C@@H](O)[C@H](O)[C@H]1O; experiment: as §1

Molecule: C[C@@H]1O[C@@H](O[C@H]2C[C@@H](O)[C@]3(CO)[C@H]4[C@H](O)C[C@]5(C)[C@@H](C6=CC(=O)OC6)CC[C@]5(O)[C@@H]4CC[C@]3(O)C2)[C@H](O)[C@H](O)[C@H]1O [OUABAIN]
- Km [1]: 470 µM

Molecule: CN(Cc1cnc2nc(N)nc(N)c2n1)c1ccc(C(=O)N[C@@H](CCC(=O)O)C(=O)O)cc1 [METHOTREXATE]
- Activity [2]: is not a substrate [-]

B1: Solute carrier organic anion transporter family member 1A4 (Rattus norvegicus) (protein)
chain: T1 sequence (O35913 whole entry)
- Km [3]: 0.24 µM
- Km [4]: 11 µM
- Km [5]: 3 µM
